Read-outs that look alike come from different tables or passages of the source. Each block holds one molecule with its values, some of them ahead of it. No end group written: not given here.
How the values were obtained:
[1] = biological target: T1, IB4 lectin (Griffonia simplicifolia, UniProt Q8W1R6); test: Elisa: inhibition of IB4 lectin binding to Galα(1,3)Gal-BSA; conditions: for Inhibition of binding of IB4 to Galα(1,3)Gal-BSA: peptide concentration 5 mM (FIG. 8a)
T1 sequence (Q8W1R6 1-247): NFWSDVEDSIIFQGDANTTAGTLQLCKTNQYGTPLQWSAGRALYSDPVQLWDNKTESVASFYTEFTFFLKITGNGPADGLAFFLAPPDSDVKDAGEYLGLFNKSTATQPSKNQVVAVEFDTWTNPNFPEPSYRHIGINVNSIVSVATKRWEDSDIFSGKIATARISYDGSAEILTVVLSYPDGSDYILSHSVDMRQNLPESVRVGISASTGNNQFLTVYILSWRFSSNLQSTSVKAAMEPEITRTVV
Protocol: (§1) 50 μl of either purified anti-Galα(1,3)Ga IgG or biotinylated IB4 lectin was added to the wells, incubated for 45 minutes at 22° C., washed with PBS-0.05% Tween 20, and 50 μl of the relevant IIRP conjugate added and incubated for a further 45 minutes before washing and the addition of 50 μl of substrate (2,2′ Azino-di-B-ethylbenzthiozoline (Zymed, San Francisco, Calif.)) and reading the OD405.
(§2) An Elisa was established to calculate the relative “affinity” of the Gal pep 1 (SEQ ID No. 1) for the IB4 lectin and for human anti-Galα(1,3)Gal antibodies, and to compare these with the affinities for α-galactosyl sugars.
(§3) Peptides or carbohydrates were examined cytofluorographically for their ability to inhibit antibody/lectin binding to the cell surface using a FACSCAN flow cytometer (Becton Dickinson, USA)[20]: 25 μl of inhibitor was mixed with 25 μl of antibody of lectin and incubated at 22° C. for 3 hours (peptides) or at 4° C. for 16 hours (carbohydrates)[14], prior to addition of appropriate targets. An Elisa assay was used to calculate the relative affinities of the sugars or the peptides for both IB4 lectin and antibodies, and were defined as the molar concentration of inhibitor giving 50% inhibition of the maximal binding of lectin or antibody.

[2] = biological target: T1, IB4 lectin; test: Cytofluorographic inhibition of IB4 lectin binding to PIEC cells; format: cell-based
Protocol: FIGS. 3(A-C). […] (A); Staining of PIEC cells with IB4 lectin (1 μg/ml). (B) Staining of PIEC cells with NHS (final dilution of 1/50) and anti-human Ig. (C) Staining of PBL with IB4 lectin (μg/ml). Peptides were used at 5 mM (A and C) or at 20 mM (B). In each panel profile “a” represents binding in the presence of Gal pep 1 (SEQ ID No. 1), and profile “b” the binding in the presence of CD48 pep 1 (SEQ ID No. 11).
FIGS. 6(A-B). […] Varying concentrations of peptides (shown in mM on horizontal axis) were explained for ability to inhibit the binding of IB4 lectin (1 μg/ml) to tie PIEC cells using cytofluorographic analysis. (a) Gal pep 1 (SEQ ID No. 1) (□), Muc pep 1 (SEQ ID No. 15) (∘).
FIG. 7. […] All peptides used at 5 mM, using cytofluorograhic analysis. Inhibition calculated relative to no peptide control.
(§4) The binding of lectin or antibody to the surface of pig cells was detected by hemagglutination, cytotoxicity or flow cytometry using the FACSCAN flow cytometer (Becton Dickinson, Mountain View, Calif.).
as §3

[3] = tested on: human anti-Galα(1,3)Gal IgG antibodies; test: Elisa: inhibition of anti-Galα(1,3)Gal IgG binding to Galα(1,3)Gal-BSA
Protocol: as §1, §2, §3

[4] = tested on: MCF-7 (MUC1^+HLA-A*0201^+) cells; test: CTL assay, HLA-A*0201/K^b spleen CTLs on human breast cancer cells; format: ex vivo, mouse; conditions: HLA-A2 mice
Protocol: FIG. 14(A) Direct CTL assay using p815 MUC1+ (Tm2) or P815 targets. DBA/2 mice were immunised with MFP, or Gal-KLH. FIG. 14(B) CTL assay using HLA-A*0201/K^b spleen CTLs from mice immunised with either mimic or mutated mimic peptides on ^51Cr MCF-7 (MUC1^+HLA-A*0201^+) cells. ^51CrBT20 (MUC1^+HLA-A*0201^−) or MF272 (MUC1^−IILA-A*0201^+) cells were also used as targets and as well as ^51CrMCF-7 cells incubated with cold K562 cells at a 30:1 hot:cold ratio (K562, a myelogenous leukemia cell line). Vertical axis=% lysis; horizontal axis=E:T ratio.
It was next investigated whether the […] peptide (SEQ ID No. 1) be presented by HLA-A2 could immunise for HLA-H2 presented MUC1 peptides. […] Thus the […] peptide (SEQ ID No. 1) gives highly specific immune responses which appear to be directed to the human MUC1 peptide presented by MUC class I molecules.

[5] = tested on: PIEC cells; test: Inhibition of cytotoxicity of NHS and complement on PIEC; format: cell-based, pig; conditions: peptide 10 mM to 2.5 mM, NHS 1/25
Description: FIG. 4. Inhibition of cytotoxicity due to natural antibody and complement by Gal pep 1 (SEQ ID No. 1). Varying concentrations of Gal pep 1 (∘) or CD48 pep 1 (♦) (shown in mM on horizontal axis) were examined in a cytotoxicity assay using NHS (final dilution of 1/25) and PEEC cells as targets.
as §4
Human cytotoxic antibodies directly damage pig endothelial cells in a pig-to-human xenograft, therefore the ability of Gal pep 1 (SEQ ID No. 1) to inhibit the cytotoxicity of human antibodies on PIEC in vitro was tested; Gal pep 1 inhibited the cytotoxicity of NHS (10 mM to 2.5 mM), whereas CD48 pep 1 (SEQ ID No. 11) had no effect (FIG. 4).

[6] = biological target: IB4 lectin from Griffonia simplicifolia (Griffonia simplicifolia); test: flow cytometry, IB4 on pig PBL
[7] = biological target: human natural antibodies in normal human serum (NHS) (human); test: cell-based or functional assay
[8] = biological target: purified human anti-Galα(1,3)Gal IgG antibodies (human); test: competition ELISA (I50): peptide inhibits anti-Galα(1,3)Gal IgG binding to Galα(1,3)Gal-BSA
[9] = biological target: BC1 anti-MUC1 monoclonal antibody; test: flow cytometry, competition with MUC1 on MUC1+3T3 (MOR5) cells
[10] = biological target: IB4 lectin from Griffonia simplicifolia (Griffonia simplicifolia); test: competition ELISA (I50): peptide inhibits biotinylated IB4 binding to Galα(1,3)Gal-BSA
[11] = biological target: IB4 lectin from Griffonia simplicifolia (Griffonia simplicifolia); test: inhibition of IB4 reaction with galactomannan (not shown)
[12] = biological target: human natural antibodies in normal human serum (NHS) (human); test: flow cytometry, NHS (1/50) natural antibodies on PIEC cells; no inhibition at lower concentrations
[13] = biological target: IB4 lectin from Griffonia simplicifolia (Griffonia simplicifolia); test: flow cytometry, IB4 (1 µg/ml) on PIEC cells
[14] = Table 3, anti-Galα(1,3)Gal antibody (IgG) 87 μgs/ml, read-out: I50 Anti-Galα(1,3)Gal
[15] = Elisa, varying concentrations of inhibitor

Molecule: TSSASTGHATPLPVTP [Muc pep 11]
- Inhibition of binding of IB4 to Galα(1,3)Gal-BSA ([1]; Elisa): complete inhibition
- Inhibition of IB4 lectin binding to PIEC cells ([2]; peptides at 5 mM (FIG. 7)): inhibited
- Inhibition of binding of anti-Galα(1,3)Gal IgG to Galα(1,3)Gal-BSA ([3]; Elisa, peptides at 5 mM (FIG. 8b)): inhibited
- IC50 [3, 14]: 2500 µM

Molecule: PAPGSTAPPAHGVTSA [Muc pep 5]
- Inhibition of binding of IB4 to Galα(1,3)Gal-BSA ([1]; Elisa): complete inhibition
- Inhibition of IB4 lectin binding to PIEC cells ([2]; varying peptide concentrations (FIG. 6b)): partial inhibition

Molecule: OCC1OC(OC2C(O)C(O)OC(CO)C2O)C(O)C(O)C1O (centres unmarked) [Galα(1,3)Gal]
- Inhibition of IB4 lectin binding to Galα(1,3)Gal-BSA (in words) [1, 15]: inhibited
- IC50 ([1]; Table 1, biotinylated IB4 lectin […], concentration giving 50% inhibition of binding, read-out: I50 IB4): < 0.03 mM
- IC50 ([1]; read-out: I50 IB4): < 0.03 mM
- Inhibition of anti-Galα(1,3)Gal IgG binding to Galα(1,3)Gal-BSA (in words) [3, 15]: inhibited
- IC50 ([3]; Table 1, anti-Galα(1,3)Gal IgG 87 μg/ml, concentration giving 50% inhibition of binding, read-out: I50 anti-Galα(1,3)Gal IgG): 30 µM
- IC50 [3, 14]: 30 µM

Molecule: DLHWASWV
- CTL lysis of human breast cancer cell lines [4]: specifically lyse human breast cancer cell lines

Molecule: YTFDQKIVEWDSRKSKC [CD48 pep 1]
- IC50 [1]: > 20 mM
- IC50 ([1]; read-out: I50 IB4, Table 3, biotinylated IB4 lectin 6.25 μgs/ml): > 20 mM
- Inhibition of cytotoxicity of NHS on PIEC [5]: had no effect

Molecule: KYPTTTPISTTTMVTPTPTPTGTQTPTTT [Muc pep 9, human Muc2 VNTR]
- Inhibition of binding of IB4 to Galα(1,3)Gal-BSA ([1]; Elisa): no inhibition
- Inhibition of IB4 lectin binding to PIEC cells ([2]; peptides at 5 mM (FIG. 7)): did not inhibit

- peptide concentration that blocked IB4 binding to PBL [6]: 5 mM
- blocking of hemagglutination of pig RBC by NHS [7]: 5 mM
- IC50 [8]: 10 mM
- lowest peptide concentration that inhibited BC1 binding to MUC1+3T3 cells [9]: 0.156 mM
- IC50 [10]: 300 µM
- IC50 [11]: 5 mM
- peptide concentration at which inhibition occurred [12]: 20 mM
B1: Gal pep 1 (DAHWESWL), synthetic peptide (peptide)
peptide: DAHWESWL

- IC50 [8]: 2.5 mM
- IC50 [10]: 156 µM
B2: Muc pep 11 (peptide)
peptide: TSSASTGHATPLPVTP

- IC50 [8]: > 20 mM
- IC50 [10]: > 20000 µM
B3: CD48 pep 1 (peptide)
peptide: YTFDQKIVEWDSRKSKC

- IC50 [8]: > 20 mM
- IC50 [10]: > 20000 µM
B4: Scram pep 1 (peptide)
peptide: WEADLHWS

- concentration down to which inhibition was almost complete [13]: 0.125 mM
- IC50 [8]: 2.5 mM
- IC50 [10]: 78 µM
B5: Muc pep 1 (peptide)
peptide: CPAHGVTSAPDTRPAPGSTAP

- IC50 [10]: 1250 µM
B6: Muc pep 6 (peptide)
peptide: TGSGHASSTPGGEKETSAQRSSVP
